± gives the uncertainty stated by the source.
Test: amyloid nucleation score (Sup35N fusion, yeast selection) (log enrichment); library NNK2; higher = more nucleation; inactive = no reads after selection
Outline: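 Growth for 7 days at 30°C on medium lacking adenine and uracil followed a 24-hour induction with 100 μM copper sulfate of psi-negative yeast expressing peptides of 20 random codons fused to Sup35N. Input and output plasmid inserts were sequenced with Illumina, and sequences with under 100 input reads were excluded. Nucleation score is the DiMSum log enrichment of output over input reads, centred on the mode score of non-aggregating sequences.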

Row | Substance | amyloid nucleation score
1 | RRMNHLPFCCKRYRTSRPKF | 0.222 ± 0.64
2 | SKLRFAIIFAKHVS | -0.322 ± 0.41
3 | PDISKECLTIGNGSACELTD | 0.827 ± 0.28
4 | LPVVLAGS | -0.191 ± 0.79
5 | DLYWSMLLYVMSRVYE | 0.249 ± 0.64
6 | RMVLSGNLLQRNRNYPNQRM | 2.03 ± 0.079
7 | HGETTTGILIELFVIWYVNS | inactive
8 | ANFQIFDLLME | -0.061 ± 0.43
9 | YSRFYLYMSRRGMRS | -0.122 ± 0.53
10 | FENYYGSHGDFGVYDKFNHL | inactive
11 | EFRGWNI | -0.587 ± 0.79
12 | WFQLRMVLTGEFEPVLERSR | 2.86 ± 0.11
13 | CPVFGSIGGLISNSWYVTLM | 5.335 ± 0.046
14 | QYWQYWSWIGCVCLLCGWRF | 0.91 ± 0.26
15 | NDWSHRSIFMMVCFWGVHSH | inactive
16 | ALSSFT | -1.28 ± 0.78
17 | TVLGTCPVNKVVDNSREAGS | 1.36 ± 0.49
18 | LIKLMGKSLTRDRY | -0.771 ± 1.1
19 | REIARGRMYLGSPGLVDIVA | -0.232 ± 0.76
20 | WMSMKFCFIFLPFYKSSVCM | 1.91 ± 0.18
21 | VGSFGLMKTYGVYCDNLLGR | inactive
22 | KVEALDVTRGIVPGKSLAVR | 0.249 ± 0.55
23 | LIFLSDFLLPPSSPARDPYL | -0.719 ± 1.1
24 | YCHPFVRHRLKLCTDACY | -0.174 ± 0.31
25 | IYKGTASIISCRWGWSVRHW | -0.573 ± 0.79

Row | Substance | amyloid nucleation score
26 | RTLPFWWLNLFWFLNNMDTF | -1.8 ± 1.1
27 | VSLIVYKGHKRGWVYRVSRR | 0.42 ± 0.65
28 | VATAAEWVQAGLE | 2.32 ± 0.11
29 | RVVFKHENLDMWCWMS | 1.47 ± 0.11
30 | YDQSICLVRNVIAIYDMGSV | 6.81 ± 0.084
31 | CEEAVSIGLKGYEHVEKSAP | -0.313 ± 0.76
32 | GLDPRCNNTPVTLYVLSPWV | -0.588 ± 1.1
33 | TGGRNVHNCNNNHASSWPRC | -1.05 ± 0.76
34 | DDLLIRYC | -0.022 ± 0.21
35 | FYTDPALISHTVEIILVLLI | inactive
36 | NRSFNMHPCGILKKNLVVGV | 0.613 ± 0.74
37 | VTRHLVVLNKYKWLGRLSTI | -1.04 ± 0.76
38 | AISILNCSMMLRIWPSTAAL | 0.059 ± 0.5
39 | VLWHTGDMDMRVNRANELVS | 4.52 ± 0.046
40 | CRHYRRYLLNLQVGWMR | 0.978 ± 0.27
41 | VNFPLVSGG | 0.114 ± 0.38
42 | MILEVSDWLGVVCVIKVWLT | 0.561 ± 0.41
43 | IFANVFANWHVGYLFTGSYY | 4.02 ± 0.081
44 | HGLYCYPGYSDQCVTFVHGY | inactive
45 | SVRGRNDESAMLTLQRELRY | -0.343 ± 1.1
46 | PEFICYCANSACDWSTYCIG | 7.356 ± 0.036
47 | CTWTYE | 5.92 ± 0.077
48 | KRSSGRVFHPRMSRW | 0.641 ± 0.4
49 | SGDHDGHEMRILRWSMLRYG | 1.56 ± 0.11
50 | SWMRFVKKIRQDAVRAVLIG | 1.36 ± 0.4

Row | Substance | amyloid nucleation score
51 | ICCTSSANNSTPPQSCWTPK | 5.84 ± 0.076
52 | HFVNMHH | -0.213 ± 0.76
53 | AYHTMGGWLRVAG | 0.005 ± 1
54 | FIICTEWPSDLLNWSSVANW | -0.658 ± 1
55 | VVSVFSSYVRQCCYGGWEV | 6.67 ± 0.077
56 | LAGITWISSTVRDVSYMRRR | 2.72 ± 0.1
57 | SKVLNGFYIWYHQVPQLYPL | -1.19 ± 1
58 | PSSDRMSKCVFRVRNCQEAL | 0.157 ± 0.55
59 | VFVWECGAIQSLLISYMNDM | -0.784 ± 0.53
60 | SYYEWARGTSVVLIAFVTSF | -0.189 ± 0.48
61 | TGILMWAGLQVHV | 1.86 ± 0.13
62 | DGAGKYTSPSDYDDRYRLAV | 0.466 ± 0.17
63 | ILKPDMWFKGARCDTNQLNC | -0.62 ± 0.39
64 | SLVNYPMKVIGVVRKFW | 2.08 ± 0.13
65 | SWELFSGAWTLGNRYPFRHK | -0.079 ± 0.55
66 | VLSHYIRLHKSLDLSYSNGV | -0.817 ± 0.61
67 | LLASFGFRKVKIYTLPCILA | -1.15 ± 0.76
68 | TTGRWVVLRG | 0.342 ± 0.39
69 | VLFEFTC | 4.33 ± 0.05
70 | VVMMSGYILTSTSLVYYHFY | 0.005 ± 0.54
71 | NNSYVFFFI | 7.013 ± 0.064
72 | CSNADFDSRVFTDANMIFPK | 4.01 ± 0.098
73 | VLAYMQHFYRCQLCSVYVWG | 4.23 ± 0.11
74 | VVFNFFCPNHGAVTMFSCFH | 8.838 ± 0.03
75 | ITLGLQLCGFNCMTGLVRWS | -0.079 ± 0.76

Row | Substance | amyloid nucleation score
76 | HDVSVLYEPTAAGWNRLLQT | 0.262 ± 0.54
77 | PTMYWFPPETATSPPYGPPG | 3.54 ± 0.1
78 | FPNKITVIPSHTSRDNVNTL | 0.261 ± 0.49
79 | LNYCHILSMYGNIAIIRSQF | 4.48 ± 0.048
80 | SHFCN | 0.859 ± 0.43
81 | NNVFELCERSKLPIKKFHDV | -0.615 ± 1
82 | RYLVVKEQDFPDEYAPY | -0.271 ± 0.55
83 | KARWLIFDDVFCCCKFGGWW | 9.018 ± 0.053
84 | CSRIHMRIARSSLF | 1.18 ± 0.39
85 | KSPCIVQTTILYNYMAVVIS | 3.83 ± 0.12
86 | SLLLYYMGGK | 5.114 ± 0.042
87 | VLATSFNFELGSGRTDLCRV | -0.805 ± 0.46
88 | AKVNCISIITEDILILSEMV | inactive
89 | VPFGQTAVLSEGDSEVGGMK | -0.228 ± 1.1
90 | LFLSLRVRRYVQHKKSGSAG | 0.082 ± 1.1
91 | NALSIQVGSCPRSLISSVGP | 0.228 ± 1
92 | LYTFGFSFLWKYSRFHV | inactive
93 | SESMFLVKDSLTWTDVFLIG | -1.07 ± 1.1
94 | TQSIALINTRVELTVDEFSF | -0.111 ± 0.65
95 | SPTCWRRRTPLIVKYRFISV | 1.15 ± 0.34
96 | IVLFVKVDLLIDLISPL | 0.049 ± 0.56
97 | SDWFW | -0.664 ± 0.5
98 | SSNALKGDGSFGQNEVESAK | -0.043 ± 0.32
99 | GMVRRQVTLMSSSDRAI | -1.07 ± 1.1
100 | KGLLCTHESMGVYRDSWPCY | -0.067 ± 0.49

Row | Substance | amyloid nucleation score
101 | SIIGVYLCFLSFRTNVLWKT | -0.122 ± 0.27
102 | HWNMLSIENLAHVEIIRLGS | 7.085 ± 0.043
103 | SIRIKRLSNLQSRNPVRPRV | -0.578 ± 1.1
104 | LQMLLHDQTEMFEYT | -0.112 ± 0.28
105 | MLKSYDKKWWGTMAWSNSSV | 0.711 ± 0.34
106 | VLEDNALVRYKDRGSSGWTV | 3.15 ± 0.059
107 | YIPARSRMGYVAQKLGTTRL | -0.025 ± 0.61
108 | GMVDLGVGSWCMEP | 0.893 ± 0.15
109 | MCTDFQC | 0.475 ± 0.27
110 | SRYSFYLRFHVLSVMAVQML | 0.688 ± 0.81
111 | CYRPDRPIITIDLVCVRFS | 1.9 ± 0.2
112 | FGGINIGCGQCLFVVR | 8.503 ± 0.053
113 | FINILKSSMLSVDWSLPIFN | inactive
114 | IWILELFKY | 4.07 ± 0.12
115 | LSSGLLSLFALKQCF | -0.669 ± 0.54
116 | KECVHHDHFYG | inactive
117 | FEFMNDFQSYVRMFRCLVFL | -0.401 ± 0.43
118 | SLQSSYEYINPRSLLHCSHL | -1.44 ± 0.49
119 | ADIAYFRLVMLKHTIYPVHM | 1.82 ± 0.27
120 | FMLAHVYVNV | -1.01 ± 0.78
121 | TTMYARFIFIVRDSEGMYCS | 7.089 ± 0.064
122 | YFTNFWLLCLLSG | 4.34 ± 0.079
123 | ILGHLYLKIKKLSFVM | -0.658 ± 1
124 | LALSRYFGL | -0.909 ± 0.54
125 | WHNITWYMFGPFMPGGEMLM | 0.446 ± 0.5

Row | Substance | amyloid nucleation score
126 | GCGGDKKDFVISFWWEKYFR | -1.74 ± 0.53
127 | DRACPYLWVPLRLRGLDTII | -1.32 ± 0.44
128 | RSGLLDMS | -0.129 ± 1.1
129 | VSLMKYQVELGNWKEPTCLG | 0.14 ± 0.56
130 | MIGDYTSFCMGSGF | inactive
131 | ARKCDLFYTFFCTNIFSSVG | 4.798 ± 0.039
132 | RNWPVIVVWAKTGCQCSFLM | -0.544 ± 0.36
133 | FVSHYHTAHTVEMASSQLTN | 0.503 ± 0.38
134 | HTTDEISAS | 1.09 ± 0.36
135 | GVWICFRSAMNSIKACFNNR | 5.395 ± 0.04
136 | LCGSQFL | 0.705 ± 0.66
137 | RLVFVFITDG | 2.96 ± 0.054
138 | LRYLGWLACDYKTVGRSVTR | 0.978 ± 0.74
139 | NINTSYHNSPCPQYTLASMW | -0.231 ± 1
140 | ILIWVVNLYAYVNYFM | 3.1 ± 0.062
141 | TRFFTSLK | -0.402 ± 0.61
142 | TCKVRLRHVDYNCIMVLLLM | -0.359 ± 0.45
143 | PGLLQGLKSGWSKTYKLLTR | 0.808 ± 0.8
144 | FRGITASYEPIGGARMSARE | -0.001 ± 0.62
145 | KYIYVYNSIGVP | -0.277 ± 1
146 | RPNSSIVLLYPFKMRPFES | inactive
147 | SWTSIVQIVILCGFRQWLAR | 0.076 ± 0.39
148 | TYTYSSCRIARRS | -0.559 ± 0.26
149 | VFTISESHLCWQYHLQEFT | 4.76 ± 0.068
150 | NKGVCDEVSVSSISVAIF | -0.093 ± 0.63

Row | Substance | amyloid nucleation score
151 | YCTGPVIWPWHKGLLSWYAW | 1.19 ± 0.57
152 | SVGRHS | -0.841 ± 0.62
153 | RTYVGRPENCKSWSYPMLMQ | 4.805 ± 0.039
154 | RLLTSHD | 4.12 ± 0.089
155 | RSVALARLMFVPLTLDSV | 0.264 ± 0.2
156 | GWWVCWVL | -1.07 ± 1.1
157 | VRFWSLMCYACFSQSGSRVR | 3.91 ± 0.084
158 | SVYVCVKWESVSVLVLY | 1.86 ± 0.12
159 | AVICVSSRIQFMWMLGGDGT | 5.693 ± 0.045
160 | TNCTDEGIILCHP | -0.19 ± 1.1
161 | WLLWNSECIANCAFTRYSMF | -0.079 ± 0.33
162 | EAYLDCYRLLFWFLFM | inactive
163 | LGMCYWGLVTCH | 0.749 ± 0.38
164 | TLCVGVFAHTAMRCRECHAA | 5.479 ± 0.043
165 | RFGNCGVTMTRSAGRFRAIS | -0.169 ± 0.29
166 | RHQYETKYRPYRVIPLQRMV | 0.277 ± 0.46
167 | SITYTNLMNTLQAIRTSFLA | -0.708 ± 1.1
168 | GRVCSRSFL | 2.1 ± 0.085
169 | MIDWGVIV | -0.149 ± 0.76
170 | MPHLVVTNAPGVSIRVGSDW | -0.888 ± 0.78

From the supplement of paper PMC12042874
